{"source": "patent US20210087281A1", "about": "(AGOMAB THERAPEUTICS, published 2021)", "key": {"[1]": {"target": "T1, native human MET on living cells (human, UniProt P08581 25-1390)", "T1 sequence (P08581 25-1390)": "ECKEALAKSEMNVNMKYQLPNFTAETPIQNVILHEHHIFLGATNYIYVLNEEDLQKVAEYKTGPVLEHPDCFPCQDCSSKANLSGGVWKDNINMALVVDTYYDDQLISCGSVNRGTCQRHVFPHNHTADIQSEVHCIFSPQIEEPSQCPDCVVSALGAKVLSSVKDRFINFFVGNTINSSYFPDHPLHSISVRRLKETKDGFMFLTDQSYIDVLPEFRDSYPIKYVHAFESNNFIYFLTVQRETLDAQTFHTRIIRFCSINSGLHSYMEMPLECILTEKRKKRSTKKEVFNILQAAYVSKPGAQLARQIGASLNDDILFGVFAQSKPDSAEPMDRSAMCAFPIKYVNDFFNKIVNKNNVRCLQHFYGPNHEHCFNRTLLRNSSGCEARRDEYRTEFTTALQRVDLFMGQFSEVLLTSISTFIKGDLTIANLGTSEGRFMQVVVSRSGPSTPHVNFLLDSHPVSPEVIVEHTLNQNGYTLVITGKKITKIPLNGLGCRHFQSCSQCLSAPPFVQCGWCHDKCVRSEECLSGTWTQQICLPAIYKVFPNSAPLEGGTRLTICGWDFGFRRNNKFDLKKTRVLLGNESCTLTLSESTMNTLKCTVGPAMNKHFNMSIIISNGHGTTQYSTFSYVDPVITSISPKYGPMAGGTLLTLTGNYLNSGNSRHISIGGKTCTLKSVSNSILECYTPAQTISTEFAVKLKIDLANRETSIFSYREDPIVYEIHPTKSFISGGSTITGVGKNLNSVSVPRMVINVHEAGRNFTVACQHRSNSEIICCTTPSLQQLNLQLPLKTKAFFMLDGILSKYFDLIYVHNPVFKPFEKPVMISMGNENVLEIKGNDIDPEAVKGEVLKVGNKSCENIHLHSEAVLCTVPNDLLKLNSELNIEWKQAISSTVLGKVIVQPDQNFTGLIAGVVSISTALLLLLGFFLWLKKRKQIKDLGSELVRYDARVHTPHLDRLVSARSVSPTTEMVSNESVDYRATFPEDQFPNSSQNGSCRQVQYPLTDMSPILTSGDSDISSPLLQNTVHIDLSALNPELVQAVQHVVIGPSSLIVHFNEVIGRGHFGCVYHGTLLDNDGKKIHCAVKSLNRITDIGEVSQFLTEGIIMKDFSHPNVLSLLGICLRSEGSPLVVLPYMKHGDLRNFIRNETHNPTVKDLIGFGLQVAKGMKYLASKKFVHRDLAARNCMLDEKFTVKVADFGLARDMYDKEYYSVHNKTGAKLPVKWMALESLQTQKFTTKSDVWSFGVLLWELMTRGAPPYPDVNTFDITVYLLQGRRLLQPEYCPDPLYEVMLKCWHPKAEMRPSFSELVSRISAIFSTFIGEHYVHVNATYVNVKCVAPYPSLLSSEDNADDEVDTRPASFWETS", "experiment": "cell-based or functional assay"}, "[2]": {"target": "T2, native mouse MET on living cells (mouse, UniProt P16056 25-1379)", "experiment": "cell-based or functional assay"}, "[3]": {"target": "T1, native human MET on living cells", "experiment": "cell-based or functional assay", "remark": "listed apart in the source"}, "[4]": {"target": "T2, native mouse MET on living cells", "experiment": "cell-based or functional assay", "remark": "listed apart in the source"}, "[5]": {"target": "T1, native human MET on living cells", "experiment": "cell-based or functional assay", "remark": "listed apart in the source"}, "[6]": {"target": "T2, native mouse MET on living cells", "experiment": "cell-based or functional assay", "remark": "listed apart in the source"}, "[7]": {"target": "T1, native human MET on living cells", "experiment": "cell-based or functional assay", "remark": "listed apart in the source"}, "[8]": {"target": "T2, native mouse MET on living cells", "experiment": "cell-based or functional assay", "remark": "listed apart in the source"}, "[9]": {"target": "T1, native human MET on living cells", "experiment": "flow cytometry, A549 cells", "outline": "(§1)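 Chimeric anti-MET antibodies were incubated with living cells expressing native MET, human on A549 and mouse on MLP29. Binding was detected by flow cytometry with phycoerythrin-conjugated anti-human IgG1. Commercial anti-MET antibodies with matching PE secondaries served as positive controls.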"}, "[10]": {"target": "T2, native mouse MET on living cells", "experiment": "flow cytometry, MLP29 cells", "outline": "as §1"}, "[11]": {"target": "human MET ECD mutant I (mutations 6, 7, 8) (human) (UniProt P08581)", "experiment": "ELISA, MET ECD in solid phase, mAb 0-50 nM"}, "[12]": {"target": "human MET ECD mutant J (mutations 6, 7) (human) (UniProt P08581)", "experiment": "ELISA, MET ECD in solid phase, mAb 0-50 nM"}, "[13]": {"target": "T3, human MET ECD (human, UniProt P08581 25-932)", "T3 construct": "range 1-932; recombinant ECD made by the applicants; the stated range begins at residue 1, so it includes the signal peptide of the entry; also called hMET; hMET ECD", "T3 sequence (P08581 25-932 limits assumed, form in doubt)": "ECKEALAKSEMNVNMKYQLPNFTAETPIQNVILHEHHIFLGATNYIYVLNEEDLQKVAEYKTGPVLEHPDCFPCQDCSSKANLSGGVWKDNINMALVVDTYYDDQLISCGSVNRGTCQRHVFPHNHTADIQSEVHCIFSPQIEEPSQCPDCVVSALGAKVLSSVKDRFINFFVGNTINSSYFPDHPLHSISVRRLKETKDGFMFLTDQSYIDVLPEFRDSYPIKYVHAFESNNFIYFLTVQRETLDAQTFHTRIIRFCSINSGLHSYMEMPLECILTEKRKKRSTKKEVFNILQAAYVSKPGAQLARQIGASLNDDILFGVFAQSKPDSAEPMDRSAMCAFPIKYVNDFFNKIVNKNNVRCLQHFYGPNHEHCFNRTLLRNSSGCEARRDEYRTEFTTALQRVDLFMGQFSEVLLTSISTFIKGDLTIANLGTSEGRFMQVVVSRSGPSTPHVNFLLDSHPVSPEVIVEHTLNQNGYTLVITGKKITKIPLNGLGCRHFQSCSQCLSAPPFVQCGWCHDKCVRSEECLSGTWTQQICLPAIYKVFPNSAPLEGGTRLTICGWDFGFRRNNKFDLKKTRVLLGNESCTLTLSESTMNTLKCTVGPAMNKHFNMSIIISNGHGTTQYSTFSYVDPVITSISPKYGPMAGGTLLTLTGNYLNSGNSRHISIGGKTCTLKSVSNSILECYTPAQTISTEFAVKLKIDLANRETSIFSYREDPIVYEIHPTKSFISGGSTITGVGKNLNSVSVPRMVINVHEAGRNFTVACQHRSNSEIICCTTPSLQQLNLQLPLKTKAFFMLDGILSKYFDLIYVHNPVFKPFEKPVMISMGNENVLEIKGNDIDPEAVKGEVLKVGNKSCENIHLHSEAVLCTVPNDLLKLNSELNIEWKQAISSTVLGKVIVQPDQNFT", "experiment": "ELISA, MET ECD in solid phase, mAb 0-20 nM", "outline": "(§2)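 Chimeric llama-human IgG1 mAbs, transiently expressed in mammalian cells and protein A-purified, were titrated in solution at 0-20 nM against immobilized hMET or mMET ECD. Binding read by ELISA.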"}, "[14]": {"target": "T4, mouse MET ECD (mouse, UniProt P16056 25-931)", "T4 construct": "range 1-931; recombinant ECD made by the applicants; the stated range begins at residue 1; also called mMET; mMET ECD", "experiment": "ELISA, MET ECD in solid phase, mAb 0-20 nM", "outline": "as §2"}, "[15]": {"target": "T5, human MET-Fc (R&D Systems) (human, UniProt P08581 25-932)", "T5 construct": "extracellular domain; bought chimeric protein; also called hMET; not shown: Fc portion of human IgG1", "T5 sequence (P08581 25-932)": "as the sequence (P08581 25-932 limits assumed, form in doubt) above", "experiment": "competition ELISA, hMET-Fc in solid phase, competitor 0.3 nM biotinylated hHGF", "outline": "(§3)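 Immobilized human or mouse MET-Fc was exposed to 0.3 nM N-terminally biotinylated HGF of matching species with antibodies at 0–120 nM. Competition given as IC₅₀ (antibody concentration for 50% competition) and IMAX (maximum % competition at saturation).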"}, "[16]": {"target": "T6, mouse MET-Fc (R&D Systems) (mouse, UniProt P16056 25-929, limits assumed)", "T6 construct": "bought chimeric protein; also called mMET; not shown: Fc part", "experiment": "competition ELISA, mMET-Fc in solid phase, competitor 0.3 nM biotinylated mHGF", "outline": "as §3"}}}
{"binder": "71G3 chimeric llama-human IgG1 mAb (antibody, V domains shown, llama VH on human IgG1 CH1-CH2-CH3, llama VL on human lambda CL) VH: QVQLVESGGGLVQPGGSLRVSCAASGFTFSTYYMSWVRQAPGKGLEWVSDIRTDGGTYYADSVKGRFTMSRDNAKNTLYLQMNSLKPEDTALYYCARTRIFPSGYDYWGQGTQVTVSS VL: QAVVTQEPSLSVSPGGTVTLTCGLSSGSVTTSNYPGWFQQTPGQAPRTLIYNTNSRHSGVPSRFSGSISGNKAALTIMGAQPEDEADYYCSLYPGSTTVFGGGTHLTVL", "values": [{"measurement": "phospho-MET ELISA EC50, A549 cells", "setting": "[1]", "result": 0.41, "unit": "nM"}, {"measurement": "phospho-MET ELISA EMAX (% HGF activity), A549 cells", "setting": "[1]", "result": 95.7, "unit": "%"}, {"measurement": "phospho-MET ELISA EC50, MLP29 cells", "setting": "[2]", "result": 0.37, "unit": "nM"}, {"measurement": "phospho-MET ELISA EMAX (% HGF activity), MLP29 cells", "setting": "[2]", "result": 97.8, "unit": "%"}, {"measurement": "scatter score 0-4, HPAF-II, 0.001 nM", "setting": "[3]", "result": 0, "unit": "score"}, {"measurement": "scatter score 0-4, HPAF-II, 0.004 nM", "setting": "[3]", "result": 0, "unit": "score"}, {"measurement": "scatter score 0-4, HPAF-II, 0.012 nM", "setting": "[3]", "result": 1, "unit": "score"}, {"measurement": "scatter score 0-4, HPAF-II, 0.037 nM", "setting": "[3]", "result": 2, "unit": "score"}, {"measurement": "scatter score 0-4, HPAF-II, 0.111 nM", "setting": "[3]", "result": 3, "unit": "score"}, {"measurement": "scatter score 0-4, HPAF-II, 0.333 nM", "setting": "[3]", "result": 4, "unit": "score"}, {"measurement": "scatter score 0-4, HPAF-II, 1.000 nM", "setting": "[3]", "result": 4, "unit": "score"}, {"measurement": "scatter score 0-4, HPAF-II, 3.000 nM", "setting": "[3]", "result": 4, "unit": "score"}, {"measurement": "scatter score 0-4, HPAF-II, 9.000 nM", "setting": "[3]", "result": 4, "unit": "score"}, {"measurement": "scatter score 0-4, MLP29, 0.001 nM", "setting": "[4]", "result": 0, "unit": "score"}, {"measurement": "scatter score 0-4, MLP29, 0.004 nM", "setting": "[4]", "result": 0, "unit": "score"}, {"measurement": "scatter score 0-4, MLP29, 0.012 nM", "setting": "[4]", "result": 0, "unit": "score"}, {"measurement": "scatter score 0-4, MLP29, 0.037 nM", "setting": "[4]", "result": 1, "unit": "score"}, {"measurement": "scatter score 0-4, MLP29, 0.111 nM", "setting": "[4]", "result": 2, "unit": "score"}, {"measurement": "scatter score 0-4, MLP29, 0.333 nM", "setting": "[4]", "result": 4, "unit": "score"}, {"measurement": "scatter score 0-4, MLP29, 1.000 nM", "setting": "[4]", "result": 4, "unit": "score"}, {"measurement": "scatter score 0-4, MLP29, 3.000 nM", "setting": "[4]", "result": 4, "unit": "score"}, {"measurement": "scatter score 0-4, MLP29, 9.000 nM", "setting": "[4]", "result": 4, "unit": "score"}, {"measurement": "protection from staurosporine, viability EC50, MCF10A cells", "setting": "[5]", "result": 5.04, "unit": "nM"}, {"measurement": "protection from staurosporine, viability EMAX, MCF10A cells", "setting": "[5]", "result": 65.2, "unit": "%"}, {"measurement": "protection from staurosporine, viability EC50, MLP29 cells", "setting": "[6]", "result": 4.85, "unit": "nM"}, {"measurement": "protection from staurosporine, viability EMAX, MLP29 cells", "setting": "[6]", "result": 62.3, "unit": "%"}, {"measurement": "branches per spheroid, LOC cells, 0.5 nM", "setting": "[7]", "result": 13.7, "unit": "branches"}, {"measurement": "branches per spheroid, LOC cells, 2.5 nM", "setting": "[7]", "result": 19, "unit": "branches"}, {"measurement": "branches per spheroid, LOC cells, 12.5 nM", "setting": "[7]", "result": 22.3, "unit": "branches"}, {"measurement": "branches per spheroid, MLP29 cells, 0.5 nM", "setting": "[8]", "result": 24.7, "unit": "branches"}, {"measurement": "branches per spheroid, MLP29 cells, 2.5 nM", "setting": "[8]", "result": 34.3, "unit": "branches"}, {"measurement": "branches per spheroid, MLP29 cells, 12.5 nM", "setting": "[8]", "result": 29.3, "unit": "branches"}, {"measurement": "EC50", "setting": "[9]", "result": 0.296, "unit": "nM"}, {"measurement": "EMAX", "setting": "[9]", "result": "117 % relative to control"}, {"measurement": "EC50", "setting": "[10]", "result": 0.214, "unit": "nM"}, {"measurement": "EMAX", "setting": "[10]", "result": "116 % relative to control"}, {"measurement": "% binding (EMAX) compared to WT MET", "setting": "[11]", "result": 100, "unit": "% WT MET ECD"}, {"measurement": "% binding (EMAX) compared to WT MET", "setting": "[12]", "result": 91.2, "unit": "% WT MET ECD"}, {"measurement": "EC50", "setting": "[13]", "result": 0.067, "unit": "nM"}, {"measurement": "EMAX (OD450)", "setting": "[13]", "result": 2.83, "unit": "AU"}, {"measurement": "EC50", "setting": "[14]", "result": 0.057, "unit": "nM"}, {"measurement": "EMAX (OD450)", "setting": "[14]", "result": 2.98, "unit": "AU"}, {"measurement": "IC50", "setting": "[15]", "result": 0.49, "unit": "nM"}, {"measurement": "IMAX", "setting": "[15]", "result": 63.2, "unit": "%"}, {"measurement": "IC50", "setting": "[16]", "result": 0.53, "unit": "nM"}, {"measurement": "IMAX", "setting": "[16]", "result": 62.9, "unit": "%"}]}
